Values quoted from earlier work as cited in publication PMC12860966.

Biological target: MMP-9 (Homo sapiens) (UniProt P14780)
UniProt P14780, sequence (P14780 94-707): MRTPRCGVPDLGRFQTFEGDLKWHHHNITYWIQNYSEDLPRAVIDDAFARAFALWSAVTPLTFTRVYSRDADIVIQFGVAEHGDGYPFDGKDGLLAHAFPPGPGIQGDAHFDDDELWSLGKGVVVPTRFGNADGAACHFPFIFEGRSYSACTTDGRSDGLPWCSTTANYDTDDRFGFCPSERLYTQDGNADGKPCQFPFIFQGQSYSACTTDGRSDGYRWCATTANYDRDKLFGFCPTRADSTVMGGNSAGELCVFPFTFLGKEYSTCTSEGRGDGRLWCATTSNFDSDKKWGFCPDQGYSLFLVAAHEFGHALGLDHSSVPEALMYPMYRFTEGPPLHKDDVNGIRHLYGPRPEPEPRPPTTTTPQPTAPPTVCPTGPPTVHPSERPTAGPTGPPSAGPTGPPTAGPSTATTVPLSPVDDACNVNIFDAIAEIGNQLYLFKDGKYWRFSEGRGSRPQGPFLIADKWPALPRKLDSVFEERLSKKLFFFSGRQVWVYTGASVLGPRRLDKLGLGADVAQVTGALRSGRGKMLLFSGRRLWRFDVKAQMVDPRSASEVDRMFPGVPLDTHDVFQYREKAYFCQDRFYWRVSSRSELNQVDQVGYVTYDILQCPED

Ki: 3.36 nM
Substance: TIMP-1 (from UniProt P01033)
